These results are taken from patent publication US20210380647A1 (AFFILOGIC, published 2021).

The target in one experiment is T1, murine TNFa (murine, UniProt P06804 80-235).
T1 construct: also called mTNFa; mouse TNF
T1 sequence (looked up): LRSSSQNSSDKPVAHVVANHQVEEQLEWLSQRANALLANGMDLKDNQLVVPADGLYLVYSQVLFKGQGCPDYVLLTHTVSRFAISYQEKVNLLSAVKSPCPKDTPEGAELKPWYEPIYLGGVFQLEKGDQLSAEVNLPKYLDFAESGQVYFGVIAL
The experiment can be described thus: ELISA at a single concentration (EC100) on a plate functionalized with mTNFa (FIG. 3).

The target of the next experiment is T2, TNFa mutant S95C/G148C (UniProt P01375 77-233, S95C; G148C, disulfide bridges between subunits via C95 and C148).
T2 construct: Positions probably count on the mature soluble chain; also called stabilized trimer of TNFa; stabilized TNFa trimer
T2 sequence (P01375 77-233 S171C/G224C): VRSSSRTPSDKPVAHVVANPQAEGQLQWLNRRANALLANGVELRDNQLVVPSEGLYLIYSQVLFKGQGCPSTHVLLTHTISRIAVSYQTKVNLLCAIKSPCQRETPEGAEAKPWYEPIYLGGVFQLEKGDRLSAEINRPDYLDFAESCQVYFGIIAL
The experiment can be described thus: ELISA of N11 on TNFa mutants (FIG. 12).

The target in another experiment is T3, TNFa mutant Y119A (UniProt P01375 77-233, Y119A).
T3 construct: The text speaks of 'Y119 mutants'; also called Y119 mutants; Y119 TNFalpha variants
T3 sequence (P01375 77-233 Y195A): as the sequence (P01375 77-233 S171C/G224C) above, with C95S, Y119A, C148G counted along it
In words: ELISA of N11 on Y119 mutants (FIG. 12A).

For the next experiment, the target named is T4, TNFa mutant Y119R (UniProt P01375 77-233, Y119R).
T4 construct: The text speaks of 'Y119 mutants'; also called Y119 mutants; Y119 TNFalpha variants
T4 sequence (P01375 77-233 Y195R): as the sequence (P01375 77-233 S171C/G224C) above, with C95S, Y119R, C148G counted along it
The experiment can be described thus: ELISA of N11 on Y119 mutants (FIG. 12A).

Experimental for murine TNFa: Biotinylated antigens are immobilized on streptavidin-coated plates as described above, except that the blocking step is performed for 1h at room temperature. For the identification of the positive clones, 100 μl of E. coli crude extracts are applied to wells with or without immobilized antigen for 1 h at RT. The binding is visualized using anti-RGSHis antibody HRP conjugate (Qiagen) which detects RGSHis6 tag from the variant and a solution at 1 mg/ml of o-phenylenediamine substrate (OPD) in revelation buffer (0.05 M citric acid, 0.05% hydrogen peroxide). Absorbance at 450 nm is measured using an ELISA plate reader. Quantitative ELISAs is done in the same manner, except purified protein is used.
A plate was functionalized with hTNFa and mTNFa.

B1: N11 (designed binder)
chain: MVKVKFVMFGKEKEVDTSKIVHVMRQGKLVHFWYEDNGKIDKGFVPEKDAPKELLDMLARAEREK
notes: Variant of Sac7d selected by ribosome display on biotinylated hTNFa; also called Sac7d variant N11; Nanofitin N11
On to B1, for which the binding result in the experiment with murine TNFa was “binds”; in the experiment with TNFa mutant S95C/G148C, “no binding”; with TNFa mutant Y119A it was “binds”; in the experiment with TNFa mutant Y119R, “binds”.
